Experiments:
[1] = target: T1, human HER1 Extracellular Domain (ECD) (human, UniProt P00533 25-645); assay: ELISA, coated antigen
T1 construct: also called Her1 ECD; HER1-ECD
Experimental: (§1) For the ELISA the screening an antigen down format was used. […] Hybridoma Supernatant was added to the plates and incubated for 1 h at room temperature. Bound antibody was detected with a HRP-labeled F(ab′)₂ goat anti-mouse Fcγ (Dianova) and ABTS (Roche) was used as a HRP-substrate.
(§2) As negative controls the scaffold proteins TtSlyDcas and TgSlyDΔIF were used.

[2] = target: T2, TtSlyDcas; assay: ELISA, coated antigen
T2 construct: scaffold without hairpin insert, negative control
T2 chain: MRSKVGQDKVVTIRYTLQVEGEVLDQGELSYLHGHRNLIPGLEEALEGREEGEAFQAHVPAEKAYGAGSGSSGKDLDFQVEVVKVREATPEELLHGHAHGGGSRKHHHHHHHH
Experimental: as §1, §2

[3] = target: T3, TgSlyDΔIF; assay: ELISA, coated antigen
T3 construct: scaffold without hairpin insert, negative control
T3 chain: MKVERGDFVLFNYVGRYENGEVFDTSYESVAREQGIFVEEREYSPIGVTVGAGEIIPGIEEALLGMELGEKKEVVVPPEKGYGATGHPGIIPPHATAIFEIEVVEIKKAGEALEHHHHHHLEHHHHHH
Experimental: as §1, §2

[4] = target: T4, TtSlyDcys-Her3; assay: ELISA, coated antigen
T4 chain: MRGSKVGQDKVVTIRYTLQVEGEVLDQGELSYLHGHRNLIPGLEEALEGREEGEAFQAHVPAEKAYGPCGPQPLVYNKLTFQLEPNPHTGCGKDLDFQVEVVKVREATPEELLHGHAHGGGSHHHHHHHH
Experimental: as §1, §2

[5] = target: T5, TgSlyDser-Her3; assay: ELISA, coated antigen
T5 chain: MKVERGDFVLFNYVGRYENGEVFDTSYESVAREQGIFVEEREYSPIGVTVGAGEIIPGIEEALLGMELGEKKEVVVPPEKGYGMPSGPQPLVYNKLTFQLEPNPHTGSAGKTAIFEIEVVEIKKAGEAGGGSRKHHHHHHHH
Experimental: as §1, §2

[6] = target: T6, TgSlyDcys-Her3; assay: ELISA, coated antigen
T6 chain: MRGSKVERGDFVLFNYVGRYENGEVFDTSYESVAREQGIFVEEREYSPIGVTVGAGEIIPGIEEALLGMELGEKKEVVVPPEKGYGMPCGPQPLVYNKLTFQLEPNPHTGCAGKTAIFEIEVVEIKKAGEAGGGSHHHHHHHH
Experimental: as §1, §2

[7] = target: T7, human HER3 Extracellular Domain (ECD) (human, UniProt P21860 20-643); assay: SPR Biacore 3000, 37 C
T7 construct: human recombinant, 68 kDa; 'closed' conformation without ligand; also called Her3 ECD; Her-3 ECD

[8] = target: T8, HER3 ECD-HRG complex (human, UniProt P21860 20-643); assay: SPR Biacore 3000, 37 C
T8 construct: HER3 ECD preincubated with a 3- to 6-fold molar excess of Heregulin ('open' conformation); biotinylated Her3-ECD in the ribosome display; also called HER3-ECD/HRG1β

[9] = target: T9, HER4 ECD-HRG complex (human, UniProt Q15303 26-651); assay: SPR Biacore 3000, 37 C
T9 construct: HER4 ECD preincubated with a 5-fold molar excess of Heregulin
T9 sequence 1: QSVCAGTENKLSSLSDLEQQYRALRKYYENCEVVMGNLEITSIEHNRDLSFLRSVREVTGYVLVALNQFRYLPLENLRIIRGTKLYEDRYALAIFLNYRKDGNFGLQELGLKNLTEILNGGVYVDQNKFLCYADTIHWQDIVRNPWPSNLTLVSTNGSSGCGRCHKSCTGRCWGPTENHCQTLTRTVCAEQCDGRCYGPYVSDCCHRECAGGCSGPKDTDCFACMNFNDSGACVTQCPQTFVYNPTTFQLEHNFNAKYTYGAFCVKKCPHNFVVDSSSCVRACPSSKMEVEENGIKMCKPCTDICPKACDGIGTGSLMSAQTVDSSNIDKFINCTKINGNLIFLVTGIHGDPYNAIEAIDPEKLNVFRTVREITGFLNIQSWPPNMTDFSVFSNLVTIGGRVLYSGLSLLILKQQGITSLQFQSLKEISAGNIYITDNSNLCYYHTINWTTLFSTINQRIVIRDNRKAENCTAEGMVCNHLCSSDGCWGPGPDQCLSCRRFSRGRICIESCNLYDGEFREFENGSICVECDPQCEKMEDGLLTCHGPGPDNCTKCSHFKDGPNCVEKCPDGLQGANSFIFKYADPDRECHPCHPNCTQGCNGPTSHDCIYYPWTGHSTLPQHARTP
T9 sequence 2: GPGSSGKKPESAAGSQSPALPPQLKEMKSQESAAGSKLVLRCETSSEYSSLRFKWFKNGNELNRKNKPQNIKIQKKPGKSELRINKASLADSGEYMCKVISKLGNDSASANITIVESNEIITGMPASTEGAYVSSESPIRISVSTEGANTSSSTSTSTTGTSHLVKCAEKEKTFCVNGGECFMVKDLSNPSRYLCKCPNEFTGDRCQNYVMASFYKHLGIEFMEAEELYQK

[10] = target: T9, HER4 ECD-HRG complex; assay: SPR Biacore T100; reference: HER4-ECD without Heregulin
[11] = target: T10, human HER2 (full length, on cells) (human, UniProt P04626 23-1255); assay: IHC (Ventana Benchmark XT) on formalin-fixed, paraffin-embedded HEK293 cells transiently transfected with full length HER2
T10 construct: HEK293 cells transfected with full length HER2 (IHC); MCF-7 cells (co-immunoprecipitation)
Experimental: All selected clones were tested for reactivity and specificity in IHC. […] After an additional fixation in formalin overnight the Agarose blocks were embedded in paraffin. Untransfected HEK293 cells were used as negative controls and treated accordingly to the transfected cells. After paraffin embedding 3 μm thin sections were prepared using a microtome. The sections were mounted on glass microscopy slides and dried for 2 h. All further steps of the immunohistochemical staining procedure were carried out using a Ventana Benchmark XT. The slides were dewaxed and antigen retrieval was performed by applying heat for 1 hour. For antigen retrieval the Ventana buffer CC1 was used. The antibodies were used at a concentration of 1 μg/ml. For the detection of bound antibody the Ventana UltraView detection kit was used.

ELISA signal [1]: 0.018 | ELISA signal [2]: 0.023 | ELISA signal [3]: 0.02 | ELISA signal [4]: 3.15 | ELISA signal [5]: 3.16 | ELISA signal [6]: 3.16 | Kd [7]: 4 nM | MR [7]: 0.6 | koff [7]: 8.1e-05 s⁻¹ | kon [7]: 21000 M⁻¹ s⁻¹ | t/2diss [7]: 144 min | Kd [8]: 7 nM | MR [8]: 0.7 | koff [8]: 0.00057 s⁻¹ | kon [8]: 79000 M⁻¹ s⁻¹ | t/2diss [8]: 20 min | Kd [9]: 6 nM | MR [9]: 0.9 | koff [9]: 0.0033 s⁻¹ | kon [9]: 580000 M⁻¹ s⁻¹ | t/2diss [9]: 4 min | ratio MR (+Heregulin)/MR (-Heregulin) [10]: 6 fold | ratio ka (Her4-ECD-HRG)/ka (Her4-ECD) [10]: 23.9 fold | binding result [11]: no binding (tested: 1 µg/ml)
B1: anti-HER3/HER4 antibody M-05-74 (antibody, V domains shown)
VH: QVQLQQSGAELAKPGASVKMSCKTSGYTLTDYWIHWVKQRPGQGLEWIGYINPYTGYTESNQKFKDKATLTADKSSNTAYIQLSSLTSEDSAVYYCARPYYYGDYWGQGTTLTVSS
VL: QIVLTQSPAIMSASPGERVTITCSASSSVSYMHWFQQKPGTSPKLLIYSTSNLASGVPARFSGSGSGTSYSLTISRMEAEDAATYYCQQRSSYPFTFGSGTKLEIK
notes: murine monoclonal IgG from hybridoma (supernatant or purified), bivalent; also called M-074; M-5-74

From patent US20170233490A1 (Hoffmann-La Roche, published 2017)
